Our source for the Kd values is patent US20240043506A1 (GARVAN INSTITUTE OF MEDICAL RESEARCH, published 2024).

The target of assay [1] is T1, SARS-CoV-2 S protein RBD (residues 319-541 of the S protein), soluble, with C-terminal Avitag and His tag (SARS-CoV-2, UniProt P0DTC2 319-541). Nature of the assay: biolayer interferometry (BLItz), […]. On the technique in general: In BLI a coated tip is dipped into the sample, and binding shifts an interference pattern.
The target in assay [2] is T1, SARS-CoV-2 S protein RBD (residues …). The assay is described as follows: biolayer interferometry (BLItz), […], global fit.

Changes are numbered by the printed parent chain. Numbers in names are those of the source.

One may read the Kd as a measure of binding affinity in units of concentration.

B1: C12K-D12 (antibody, V domains shown)
VH: EVQLLESGGGLVQPGGSLRLSCAASGFRISDEDMGWVRQAPGKGLEWVSYIDNAGASTYYADSVKGRFTISRDNSKNTLYLQMNSLRAEDTAVYYCAKSLGPNPEFDYWGQGTLVTVSS
VL: DIQMTQSPSSLSASVGDRVTITCRASQSISSYLNWYQQKPGKAPKLLIYYASNLQSGVPSRFSGSGSGTDFTLTISSLQPEDFATYYCQQGLGMPITFGQGTKVEIK
B1: the Kd in assay [1] worked out at 1 nM.

B2: C12K-G10 (antibody, V domains shown)
VH: B1 VH with G101N, P102S, N103L, P104G, E105V
VL: B1 VL with S30Y, S31D, N53A
The molecule B2 showed a Kd in assay [1] of 0.788 nM.

B3: G1K-C4 (antibody, V domains shown)
VH: EVQLLESGGGLVQPGGSLRLSCAASGFRFDYEDMGWVRQAPGKGLEWVSSIDSHGASTYYADSVKGRFTISRDNSKNTLYLQMNSLRAEDTAVYYCAKYSHSVSYGPFDYWGQGTLVTVSS
VL: B1 VL with S28Y, S31Y, Y32D, Y50S, N53S, G91T, L92N, G93T, M94Y, I96Q
Regarding B3, the affinity in assay [2], expressed as Kd, was 59 nM.
